What is called EC50 is the midpoint of the concentration-response curve. A low value points to an effect from little substance.

Assay [1] has as its target T1, 人Claudin18.2 (过表达细胞) (human, UniProt P56856-2 1-261). Briefly: cell-based or functional assay.
Assay [2] has as its target T2, 人Claudin18.2-His重组蛋白(Kactus,Cat.CLD-HE1821) (human, UniProt P56856-2 1-261, limits assumed).
T2 construct: Bought protein; also called Claudin18.2重组蛋白; not shown: His tag
Description: ELISA, human Claudin18.2-His coated. In general terms: In an ELISA, binding on a coated surface is turned into a signal by an enzyme label.

In assay [3] the target is T3, 人Claudin18.1 (过表达细胞) (human, UniProt P56856 1-261).
T3 construct: whole, on cells; also called CLDN18.1; Caludin18.1
Description: cell ELISA on 293 cells transfected with human Claudin18.1.

Assay [4] has as its target T1, 人Claudin18.2 (过表达细胞). Description: cell ELISA on 293 cells transfected with human Claudin18.2.

B1: 人源化抗体HA1LA1 (antibody, human IgG1, kappa, V domains shown)
VH: QVQLVESGGGVVQPGRSLRLSCAASGFTFSTYGVHWVRQAPGKGLEWVAVIWNGGNTDYNAAFISRFTISRDNSKNTLYLQMNSLRAEDTAVYYCARNRRGGGFGMDYWGQGTLVTVSS
VL: DIVMTQSPDSLAVSLGERATINCKSSQSLLNGGIQKNYLTWYQQKPGQPPKLLIYWASTRESGVPDRFSGSGSGTDFTLTISSLQAEDVAVYYCQNAYTYPFTFGQGTKLEIKR
notes: also called Claudin18.2单抗对照
For the molecule B1, the “ADCC活性 EC50 (靶细胞的裂解百分比, LDH; NUGC4-Claudin18.2靶细胞, NK92效应细胞)” value in assay [1] came out at 0.0126 nM. The EC50 in assay [2] was 0.49 µg/mL; in assay [4], 0.028 µg/mL. Also, the binding result in assay [3] is listed as “no binding”.

B2: 对照抗体(来自专利CN20148000912) (antibody, V domains shown)
VH: QIQLVQSGPELKKPGETVKISCKASGYTFTNYGMNWVKQAPGKGLKWMGWINTNTGEPTYAEEFKGRFAFSLETSASTAYLQINNLKNEDTATYFCARLGFGNAMDYWGQGTSVTVSS
VL: DIVMTQSPSSLTVTAGEKVTMSCKSSQSLLNSGNQKNYLTWYQQKPGQPPKLLIYWASTRESGVPDRFTGSGSGTDFTLTISSVQAEDLAVYYCQNDYSYPLTFGAGTKLELK
B2: the “ADCC活性 EC50 (靶细胞的裂解百分比, LDH; NUGC4-Claudin18.2靶细胞, NK92效应细胞)” value in assay [1] came to 0.0575 nM. The binding result in assay [3] is “no binding”. The molecule also gave a half-maximal effective concentration (EC50) in assay [4] of 0.119 µg/mL.

(Values after patent CN112830969A (JIANGSU NOVOMAB BIOPHARMACEUTICALS INC, dated 2021).)
